Results on ten molecules are retold here after patent publication US20250026813A1 (published 2025).

Numbering of substitutions follows the chain as printed.

First the molecules themselves.
B1: YANG-2302 (antibody, V domains shown)
VH: QVQLVQSGAEVRKPGASVKVSCKVSGYTLPELAIHWVRQAPGKGLEWMGGFIPEDGDTIYAQKFQGRVTMTEDTSTDTAYMDLTSLRSEDAAVYYCTSGWAAPGYNYGMAVWGQGTTVTVSS
VL: EVVLTQSPGTLSLSSGERATLSCRASQSVSSNYLAWYQKKPGQAPRLLIYGASSRVTGIPDRFGGSGSGTDFTLTISRLEPEDFAVYYCQQYDASPYSFGQGTKLDIK
B2: YANG-2303 (antibody, V domains shown)
VH: QVQLVQSGAEVKKPGASVRVSCKVSGYTLPELAIHWVRQAPGKGLEWMGGFDPEDGETIYAQKFQGRVIMTEDTSTDTAYMDLSSLRSEDTAVYYCVKTWAAPGYNYGLDTWGQGTTVTVSS
VL: EIVLTQSPGILSLSPGESATLSCRASQSIASNYLAWFQQKPGQAPRLLIYGASSRAAGFPDRFSGSGSGTDFTLTIKRLEPEDSAVYYCQHYGSSPCSFGQGTNLEIK
B3: YANG-2301 (antibody, V domains shown)
VH: QVHLIQSGAEVKKPGASVKVSCKVSGYTLIEVSVHWVRQAPGKGLEWMGGFDPEAAETIYAQKFQGRVTMTEDTSTDTAYMDLSSLKSEDSAVYYCAIGPAVTGRNSGEYYYYYGMDVWGQGTTVTVAS
VL: EIVMTQSPATLSVSPGERATLSCRASQSVNSNLAWYQQKPGQAPRLLIYAVSTRATGLPARFSGSGSGTEFTLTISSLQSEDFVVYYCHQYNNWPLTFGGGTKVEIK
B4: IMPI-004 (antibody, V domains shown)
VH: QVQLVESGGGVVQPGRSLRLSCAASGFTFSSYGMHWVRQAPGKGLEWVAVIWYDGGNKYYADSVKGRFTISRDNSKNTLYLQMNSLRAEDTAVYYCARVNVLMGYGMDVWGQGTTVTVSS
VL: EIVLTQSPGTLSLSPGDKATLSCRASQSIISSFLAWYQQKPGQAPRLLIYGASSRATGIPDRFSGSGSGTDFTLTISRLEPEDFAVYYCQQYGSSLTFGGGTKVEIK
B5: IMPI-055 (antibody, V domains shown)
VH: QVQLVQSGAEVKKPGASVKVSCKASGYTFTSYDINWVRQATGQGLEWMGWMNPNSGNTGYAQKFQGRVTMTRDTSINTAYMELSSLRSEDTAVYFCARGGRYCSDVTCYSGEPFDYWGQGTLVTVSS
VL: EIMLTQSPDFQSVTPKEKVTITCRASQSIGSSLHWYQQKPDQSPKLLIKFASQSISGVPSRFSGSGSGTDFTLTINSLEAEDAAAYYCHQSSSLPHTFGPGTKVEIK
B6: IMPI-029 (antibody, V domains shown)
VH: EVQLVESGGGLIQPGGSLRLSCAASGVTVSSNYMNWVRQAPGKGLEWVSVIYSGGSTYYADSVKGRFTISRDNSKNTLFLQMNSLRAEDSAVYYCARDLGPYGVDVWGQGTTVTVSS
VL: DIQLTQSPSFLSASVGDRVTITCWASQGISSYLAWYQQKPGKAPKLLIYAASTLQSGVPSRFSGSGSGTEFTLTISSLQPEDFATYYCQELNSYPLTFGQGTRLEIK
B7: IMPI-047 (antibody, V domains shown)
VH: B6 VH with V27F, F79Y, A87T, S90T, G100V, P101A, V104M
VL: B6 VL with L46V, E90L, Y94N, Q100G, R103K, L104V
B8: IMPI-060 (antibody, V domains shown)
VH: B6 VH with N35S, Y58F, F79Y, S90T, G100S, P101Y, V104M
VL: B6 VL with R61K, E90Q, L96S, T97S, R103K
B9: IMPI-005 (antibody, V domains shown)
VH: B6 VH with V27F
VL: B6 VL
B10: IMPI-056 (antibody, V domains shown)
VH: B6 VH with V27L, G44K, Y58F, K64R
VL: B6 VL with E90Q

The first experiment addresses SARS-CoV-2 spike protein bearing furin mutation and truncation in retention sequence, on pseudovirus (SARS-CoV-2, UniProt P0DTC2 14-1255). Put plainly: cell-based or functional assay.
B1: the “pseudovirus neutralisation IC50” value came out at 0.61 nM.

For the molecule B2, the “pseudovirus neutralisation IC50” value is 0.48 nM. Regarding B3, the “pseudovirus neutralisation IC50” value came out at 0.53 nM.

Another experiment has as its target full soluble spike trimer of SARS-CoV-2 virus (stabilised, in-house) (SARS-CoV-2, UniProt P0DTC2 14-1208; P10104 458-484).
Test: not given
Usually IC50 stands for the concentration that gives 50% inhibition. Turning to B4, the IC50 came out at 4.09 nM. On the same count and under the same terms, for B5 the value was 4.5 nM; for B6, 3.31 nM. Still for that read-out and setting: for B7 the value was 7.3 nM. B8 had a 50% inhibitory concentration (IC50) of 5.26 nM. The same measure, in the same setting: for B9 the value was 13.1 nM.

Molecule B10 registered an IC50 of 3.73 nM.
